Experimental data as given in ChEMBL document CHEMBL1145182, “Molecular dynamics simulations of the TEM-1 beta-lactamase complexed with cephalothin” (J Med Chem, 2005).

What was measured:
[1] = substrate: CC1(C)S[C@@H]2[C@H](NC(=O)Cc3ccccc3)C(=O)N2[C@H]1C(=O)O; experiment: (§1) Binding affinity for TEM-1 beta-lactamase; settings: Escherichia coli
[2] = substrate: CC(=O)OCC1=C(C(=O)O)N2C(=O)[C@@H](NC(=O)Cc3cccs3)[C@H]2SC1; experiment: as §1; settings: Escherichia coli

B1: Beta-lactamase TEM (Escherichia coli), P62593 (protein)
chain: MSIQHFRVALIPFFAAFCLPVFAHPETLVKVKDAEDQLGARVGYIELDLNSGKILESFRPEERFPMMSTFKVLLCGAVLSRVDAGQEQLGRRIHYSQNDLVEYSPVTEKHLTDGMTVRELCSAAITMSDNTAANLLLTTIGGPKELTAFLHNMGDHVTRLDRWEPELNEAIPNDERDTTMPAAMATTLRKLLTGELLTLASRQQLIDWMEADKVAGPLLRSALPAGWFIADKSGAGERGSRGIIAALGPDGKPSRIVVIYTTGSQATMDERNRQIAEIGASLIKHW
**Q.** Which results are given for B1?
**A.** Km [1]: 75 µM; Km [2]: 347 µM
